Experimental data taken from US20230174619A1 (published 2023).
Positions count from the first letter of the chain named. Names and notes keep the numbering of the source. Each block holds one binder with its values, some of them ahead of it.

Assays:
[1] = biological target: T1, murine PD-1-Fc (murine, UniProt Q02242 25-167); experiment: bio-layer interferometry (Octet), murine PD-1-Fc surface-immobilized, His-tagged PD-L1 domain
T1 construct: Surface-immobilized in the BLI assay; It differs from the selection antigen (murine PD-1 31-150, C83S, AviTag); also called murine PD-iFc; not shown: Fc portion
T1 sequence (looked up): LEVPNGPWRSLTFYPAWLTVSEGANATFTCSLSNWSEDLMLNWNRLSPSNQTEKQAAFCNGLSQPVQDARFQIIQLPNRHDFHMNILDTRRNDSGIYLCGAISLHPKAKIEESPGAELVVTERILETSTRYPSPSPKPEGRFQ
Method: Amino acids are indicated and shown as sticks. (B) Structural alignment indicates an identical structural conformation. (C)-(E) Representative bio-layer interferometry sensograms for PD-L1 wt (C) and two indicated engineered PD-L1 variants (D, E). Raw data (thick lines) was fitted using 1:1 langmuir interaction model (thin lines).
(§1) Phage selections were performed using as an antigen recombinant murine PD-1 protein (amino acids 31-150) with C83S substitution fused to AviTag peptide, biotinylated in vivo and purified from E. coli. After a couple of selection rounds, binding of enriched phage clones were analyzed by ELISA and the selected PD-L1 variants were sequenced. In a competitive phage IC₅₀ ELISA, the 5 PD-L1 variants were examined for their binding properties by competing with 500 nM or 50 nM in solution with PD-1-Fc (FIG. 1).
Amino acid positions 54, 56, 63, 66, 68, 69, 76, 113, 115, and 121-125 were randomized. For the selected variants, dashes represent no amino acid change relative to the wild type sequence. Kd values for the interaction of the variants and murine PD-1 were obtained by bio-layer interferometry; n/a—not available. Table 2 indicates R113 because the original C113 of the murine sequence was substituted already prior to library construction, as indicated above.

[2] = biological target: T1, murine PD-1-Fc; experiment: bio-layer interferometry 'in similar experiments', dimeric Fc fusion (avidity)
Method: as §1
(§2) After expression and purification of the Fc fusion proteins, we obtained with one step purification on a protein A column, good purity and an average yield of 200 mg/L Expi293F culture (FIG. 4). In order to verify whether the purified protein is still binding the PD-1, we determined PD-1/PD-L1 affinities as before.

[3] = biological target: T1, murine PD-1-Fc; experiment: bio-layer interferometry, Fc fusions; reference wt Fc fusion
[4] = biological target: T1, murine PD-1-Fc; experiment: bio-layer interferometry 'as before', dimeric Fc fusion (avidity)
Method: as §1, §2

[5] = biological target: T1, murine PD-1-Fc; experiment: bio-layer interferometry, monomeric variant 258 as retold in the text (Table 1 prints 2.17)
[6] = biological target: T1, murine PD-1-Fc; experiment: bio-layer interferometry (Octet), murine PD-1-Fc surface-immobilized; reference PD-L1 wt in the same format

- Kd [1]: 66 nM
B1: PD-L1 wt, distal Ig-like domain of murine PD-L1 (amino acids 18-132) with C113R, His-tag fusion expressed in E. coli (ligand)
chain: AFTITAPKDLYVVEYGSNVTMECRFPVERELDLLALVVYWEKEDEQVIQFVAGEEDLKPQHSNFRGRASLPKDQLLKGNAALQITDVKLQDAGVYRCIISYGGADYKRITLKVNA
notes: also called unmodified PD-L1 wt; wt PD-L1; not shown: His-tag

- Kd [2]: ~0.6 nM
B2: PD-L1 wt Fc fusion protein (Ig-like V-type domain of PD-L1 fused to human Fc), expressed in Expi293F (Fc fusion)
chain: B1 chain
notes: also called wt (200); wt protein; not shown: linker/hinge and human Fc

- fold improved affinity against the wt Fc fusion [3]: ≤ 8 fold
- Kd [4]: 0.077 nM
B3: PD-L1 variant 258 Fc fusion protein (Ig-like V-type domain fused to human Fc), expressed in Expi293F (Fc fusion)
chain: B1 chain with Y39S, P59F, I98L
notes: not shown: linker/hinge and human Fc

- Kd [5]: 2.14 nM
- fold advantage in binding compared to PD-L1 wt [6]: ≤ 30 fold
- Kd [1]: 2.17 nM
B4: PD-L1 variant 258, distal Ig-like domain of murine PD-L1 (amino acids 18-132), His-tag fusion expressed in E. coli (ligand)
chain: B1 chain with Y39S, P59F, I98L
notes: not shown: His-tag

- fold advantage in binding compared to PD-L1 wt [6]: ≤ 30 fold
- Kd [1]: 2.54 nM
B5: PD-L1 variant 214, distal Ig-like domain of murine PD-L1 (amino acids 18-132), His-tag fusion expressed in E. coli (ligand)
chain: B1 chain with V37L, Y39D, Q49R, V51E, A52S, P59H
notes: not shown: His-tag

- fold improved affinity against the wt Fc fusion [3]: ≤ 8 fold
- Kd [4]: 0.088 nM
B6: PD-L1 variant 214 Fc fusion protein (Ig-like V-type domain fused to human Fc), expressed in Expi293F (Fc fusion)
chain: B1 chain with V37L, Y39D, Q49R, V51E, A52S, P59H
notes: as for B3
